# Experimental data reported in IntAct's records for PubMed 16427013.
# B1: Protein NRD1 (Saccharomyces cerevisiae), P53617 (parent)
# chain: MQQDDDFQNFVATLESFKDLKSGISGSRIKKLTTYALDHIDIESKIISLIIDYSRLCPDSHKLGSLYIIDSIGRAYLDETRSNSNSSSNKPGTCAHAINTLGEVIQELLSDAIAKSNQDHKEKIRMLLDIWDRSGLFQKSYLNAIRSKCFAMDISNNTANTASQQLSLDPKQRSKQILSNLKKSPPLNLNISLPTDLTSTDPAKQQAALFQVIAALQKHFKTLPSHTSVGTVAPPQAHTITEYGSRRERERERERYNSRRNRSRSPPAPFSQPSTGRKDRYPSVAQDQYSIGAPNTTFGTNNHHLYPDELNVSNNPHYRPKPVSYDSTLPPDHIKVYSRTLFIGGVPLNMKEWDLANVLKPFAEVQSVILNNSRKHAFVKVYSRHEAENVLQNFNKDGALPLRTRWGVGFGPRDCCDYQHGYSIIPMHRLTDADKKWSVSAQWGGTSGQPLVTGIVFEEPDIIVGEGVSSKAISQKMPTDSGRNGPRSGKPNKSGSISSISPVPYGNAPLASPPPQQYVQPMMQQPYGYAPNQPLPSQGPAAAAPPVPQQQFDPTAQLNSLMNMLNQQQQQQQQS
# partner: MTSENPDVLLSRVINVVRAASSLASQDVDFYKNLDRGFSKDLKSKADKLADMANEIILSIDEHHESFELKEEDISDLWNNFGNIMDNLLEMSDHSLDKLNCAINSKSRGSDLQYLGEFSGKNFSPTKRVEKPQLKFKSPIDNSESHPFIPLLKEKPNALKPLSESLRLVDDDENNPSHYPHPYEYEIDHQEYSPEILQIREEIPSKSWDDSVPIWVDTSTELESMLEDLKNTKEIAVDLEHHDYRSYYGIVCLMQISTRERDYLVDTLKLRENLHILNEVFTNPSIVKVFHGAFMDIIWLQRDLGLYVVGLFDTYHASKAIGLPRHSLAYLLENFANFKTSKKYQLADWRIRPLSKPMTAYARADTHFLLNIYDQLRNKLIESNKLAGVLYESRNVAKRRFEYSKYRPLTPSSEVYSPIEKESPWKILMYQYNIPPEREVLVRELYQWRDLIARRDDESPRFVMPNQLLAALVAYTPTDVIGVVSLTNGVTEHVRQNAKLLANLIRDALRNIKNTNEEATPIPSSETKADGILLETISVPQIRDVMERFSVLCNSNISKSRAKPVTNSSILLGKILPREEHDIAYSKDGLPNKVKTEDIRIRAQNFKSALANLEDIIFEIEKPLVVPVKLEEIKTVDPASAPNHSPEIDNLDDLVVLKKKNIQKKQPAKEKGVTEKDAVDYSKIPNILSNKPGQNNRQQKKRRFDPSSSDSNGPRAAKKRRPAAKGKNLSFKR
# Variants of: B1
# Settings: with rrp6_yeast RRP6, Q12149
row,effect of a mutation on the interaction,Variant
1,with no effect,V379R
